This note sets out measurements from publication PMC9982069 (PNAS Nexus, 2023).

Where “and” joins values, the source holds several entries; their conditions need not be identical. Identical values can stand only once.

The data set “cross-linking” concerns the molecule itself. Nature of the data set: cross-linking.
Data set [1] deals with batCOV5-N3 [change] (residues 391-427 of batCOV5 N protein) fused to C-terminal GFP-His10 (Pipistrellus bat coronavirus HKU5). The experiment in a line: MST. To be noted: both partners purified.
Data set [2] shares this target. Nature of the data set: MST. The conditions noted are these: both partners purified. The source holds these as a separate data set.
The target is the same in data set [3]. Nature of the data set: MST. To be noted: both partners purified. This is another data set of the same source.
The target is the same in data set [4]. Nature of the data set: MST. To be noted: both partners purified. This is another data set of the same source.
The target in data set [5] is batCOV5-N3 (residues 391-427) with C-terminal GFP-His10 (MST) (Pipistrellus bat coronavirus HKU5, UniProt A3EXD7 391-427). The experiment in a line: MST. The conditions noted are these: both partners purified.

B1: M protein of Pipistrellus bat coronavirus HKU5 (batCOV5-M), wild type (natural protein)
chain: MASSNVTLSNDEVLRLVKDWNFTWSVVFLLITIVLQYGYPSRSMFVYVIKMFVLWLLWPASMALSIFCAVYPIDLASQIISGILAATSCAMWISYFVQSIRLFMRTGSWWSFNPESNCLLNVPIGGTTVVRPLVEDSTSVTAVVTDGYLKMAGMHFGACDFQRLPSEVTVAKPNVLIALKMIKRQAYGTNSGVAIYHRYKAGNYRRPPIIQDQELALLRA
With B1, the stoichiometry N (in general, the number of molecules, sites or subunits per partner or assembly) in “cross-linking” is 4 and 6. Moreover, the Kd (in general, the constant that tells how readily two partners part at equilibrium) was determined as 3.5 µM in data set [1], 1.9 µM in data set [2], 4.83 µM in data set [3] and 3.07 µM in data set [4].

B2: batCOV5-M, M protein of Pipistrellus bat coronavirus HKU5, affinity- and SEC-purified (cross-linking, MST) (natural protein)
chain: MASSNVTLSNDEVLRLVKDWNFTWSVVFLLITIVLQYGYPSRSMFVYVIKMFVLWLLWPASMALSIFCAVYPIDLASQIISGILAATSCAMWISYFVQSIRLFMRTGSWWSFNPESNCLLNVPIGGTTVVRPLVEDSTSVTAVVTDGYLKMAGMHFGACDFQRLPSEVTVAKPNVLIALKMIKRQAYGTNSGVAIYHRYKAGNYRRPPIIQDQELALLRA
For B2, in data set [5], the Kd is 0.77 µM.
